# From patent US10081667B2, “Composition and method for therapeutic agent delivery during pregnancy” (University of Mississippi Medical Center, priority 2013, dated 2018)
# Legend:
# [1] = test system: endothelial cells (HUVECs); test: Cellular internalization by fluorescence microscopy, HUVECs; type: cell-based, human; details: 1 h exposure, imaged 24 h
# Protocol: (§1) FIG. 18 includes images showing the cellular internalization of SynB1-ELP delivered NOX peptide. Rhodamine-labeled SynB1-ELP-NOX was exposed to cells for 1 h, cells were washed, fresh media was returned, and images were collected 24 h after initial exposure.
# (§2) It is confirmed that the SynB1-ELP-NOX polypeptide was internalized by cells. Both endothelial cells (HUVECs) and chorionic cells (BeWo choriocarcinoma cells) were exposed to fluorescently labeled SynB1-ELP-NOX for 1 h. The cells were then washed and given fresh media for 24 h.
# [2] = test system: BeWo choriocarcinoma cells; test: Cellular internalization by fluorescence microscopy, BeWo cells; type: cell-based; details: 1 h exposure, imaged 24 h
# Protocol: as §1, §2
# [3] = test system: placental chorionic villous explants; test: ROS production in placental chorionic villous explants, dihydroethidium (DHE) assay; type: cell-based, rat; details: 20 or 50 μM, 1% O2, 48 h
# Protocol: FIG. 19 includes a graph showing inhibition of reactive oxygen species production of placental villous explants. Villous explants were dissected from rat placentas at day 19 of gestation. Explants were grown ex vivo on a bed of Matrigel in cell culture medium. 24 h after equilibration of explants, media was replaced with media plus SynB1-ELP or SynB1-ELP-NOX, and explants were incubated at 37° C. in a 6% or 1% O2 environment for 48 h. ROS was detected by incubation with 5 μM dihydroethdium for 1 hour, and fluorescence was measured using a florescence plate reader. The assay was performed in triplicate, and data represent the mean±s.e. of three independent experiments each performed with 4 explants per treatment group. *p<0.01, one way ANOVA with post-hoc Bonferonni multiple comparison.
# Chorionic villous explants were cut on GD19 and cultured ex vivo on Matrigel coated wells with complete cell culture medium. After equilibration, culture medium was replaced with medium containing SynB1-ELP-NOX or the SynB1-ELP control polypeptides at 20 or 50 μM, and explants were incubated at 6% O2 (representing a healthy placenta) or 1% O2 (representing a preeclamptic placenta). After 48 h exposure to hypoxia, detection of ROS was performed using the dihydroethidium (DHE) assay.
molecule,measurement,setting,value
"SynB1-ELP-NOX: SynB1 peptide fused to the N-terminus of ELP (SEQ ID NO: 4), NOX peptide at the C-terminus; SEQ ID NO: 16 (protein, synthetic SynB1-ELP-NOX sequence) MRGGRLSYSRRRFSTSTGRGCGPGVGVPGAGVPGGGVPGAGVPGGGVPGAGVPGGGVPGAGVPGGGVPGAGVPGGGVPGAGVPGGGVPGAGVPGGGVPGAGVPGVGVPGAGVPGGGVPGAGVPGGGVPGAGVPGGGVPGAGVPGGGVPGAGVPGGGVPGAGVPGGGVPGAGVPGGGVPGAGVPGVGVPGAGVPGGGVPGAGVPGGGVPGAGVPGGGVPGAGVPGGGVPGAGVPGGGVPGAGVPGGGVPGAGVPGGGVPGAGVPGVGVPGAGVPGGGVPGAGVPGGGVPGAGVPGGGVPGAGVPGGGVPGAGVPGGGVPGAGVPGGGVPGAGVPGGGVPGAGVPGVGVPGAGVPGGGVPGAGVPGGGVPGAGVPGGGVPGAGVPGGGVPGAGVPGGGVPGAGVPGGGVPGAGVPGGGVPGAGVPGVGVPGAGVPGGGVPGAGVPGGGVPGAGVPGGGVPGAGVPGGGVPGAGVPGGGVPGAGVPGGGVPGAGVPGGGVPGAGVPGVGVPGAGVPGGGVPGAGVPGGGVPGAGVPGGGVPGAGVPGGGVPGAGVPGGGVPGAGVPGGGVPGAGVPGGGVPGAGVPGVGVPGAGVPGGGVPGAGVPGGGVPGAGVPGGGVPGAGVPGGGVPGAGVPGGGVPGAGVPGGGVPGAGVPGGGVPGAGVPGVGVPGAGVPGGGVPGAGVPGGGVPGAGVPGGGVPGAGVPGGGVPGAGVPGGGVPGAGVPGGGVPGAGVPGGGVPGAGVPGVGVPGAGVPGGGVPGAGVPGGGVPGAGVPGGGVPGAGVPGGGVPGAGVPGGGVPGAGVPGGGVPGAGVPGGGVPGAGVPGWPGSGGCSTRIRRQL",internalization in HUVECs,[1],detectable in a punctate cytoplasmic distribution in both cell lines
same,internalization in BeWo cells,[2],detectable in a punctate cytoplasmic distribution in both cell lines
same,ROS production of hypoxic explants,[3],inhibited this ROS production
